{"source": "paper PMC5679641", "about": "(PLoS Pathogens, 2017)", "molecules": {"B1": {"name": "ABIN2, Nluc- or YFP-tagged (BRET) (natural protein, human, UniProt Q8NFZ5-1 1-429, looked up)", "chain": "MSRDPGSGGWEEAPRAAAALCTLYHEAGQRLRRLQDQLAARDALIARLRARLAALEGDAAPSLVDALLEQVARFREQLRRQEGGAAEAQMRQEIERLTERLEEKEREMQQLLSQPQHEREKEVVLLRRSMAEGERARAASDVLCRSLANETHQLRRTLTATAHMCQHLAKCLDERQHAQRNVGERSPDQSEHTDGHTSVQSVIEKLQEENRLLKQKVTHVEDLNAKWQRYNASRDEYVRGLHAQLRGLQIPHEPELMRKEISRLNRQLEEKINDCAEVKQELAASRTARDAALERVQMLEQQILAYKDDFMSERADRERAQSRIQELEEKVASLLHQVSWRQDSREPDAGRIHAGSKTAKYLAADALELMVPGGWRPGTGSQQPEPPAEGGHPGAAQRGQGDLQCPHCLQCFSDEQGEELLRHVAECCQ", "notes": "also called TNIP2"}, "B2": {"name": "ABIN2, Glu1- or Glu2-tagged (PCA) (natural protein, human, UniProt Q8NFZ5-1 1-429, looked up)", "chain": "B1 chain"}, "B3": {"name": "MSAD, YFP-tagged (BRET) (natural protein)", "chain": "MNLLRKIVKNRRDEDTQKSSPASAPLDDDDLWLPPPEYVPLKELTGKKNMRNFCINGRVKVCSPNGYSFRILRHILKSFDEIYSGNHRMIGLVKVVIGLALSGSPVPEGLNWVYKLRRTFIFQWADSRGPLEGEELEYSQEITWDDDTEFVGLQIRVIAKQCHIQGRVWCINMNPRACQLWSDMSLQTQRSEEDKDSSLLLE"}}, "key": {"[1]": {"target": "RelAp43, Nluc- or YFP-tagged (BRET)", "sequence (Q04206 whole entry)": "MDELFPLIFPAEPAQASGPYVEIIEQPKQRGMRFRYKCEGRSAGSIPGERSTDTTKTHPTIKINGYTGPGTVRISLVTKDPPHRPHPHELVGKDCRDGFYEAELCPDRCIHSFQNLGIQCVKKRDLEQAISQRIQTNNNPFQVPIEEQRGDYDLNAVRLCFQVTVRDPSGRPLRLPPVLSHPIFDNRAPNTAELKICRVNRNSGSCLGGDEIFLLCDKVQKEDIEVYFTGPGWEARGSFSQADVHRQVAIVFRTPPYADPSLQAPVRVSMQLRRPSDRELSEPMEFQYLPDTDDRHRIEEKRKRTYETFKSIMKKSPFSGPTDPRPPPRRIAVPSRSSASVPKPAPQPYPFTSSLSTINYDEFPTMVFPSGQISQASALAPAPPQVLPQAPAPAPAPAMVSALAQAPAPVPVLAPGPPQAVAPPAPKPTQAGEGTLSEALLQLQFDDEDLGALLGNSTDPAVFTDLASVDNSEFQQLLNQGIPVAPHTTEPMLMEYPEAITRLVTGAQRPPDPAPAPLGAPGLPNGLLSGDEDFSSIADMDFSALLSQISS", "assay": "FRET or BRET"}, "[2]": {"target": "ABIN2, Nluc- or YFP-tagged (BRET) (human) (UniProt Q8NFZ5)", "assay": "FRET or BRET"}, "[3]": {"target": "TPL2, Nluc- or YFP-tagged (BRET) (human) (UniProt P41279)", "sequence (P41279 whole entry)": "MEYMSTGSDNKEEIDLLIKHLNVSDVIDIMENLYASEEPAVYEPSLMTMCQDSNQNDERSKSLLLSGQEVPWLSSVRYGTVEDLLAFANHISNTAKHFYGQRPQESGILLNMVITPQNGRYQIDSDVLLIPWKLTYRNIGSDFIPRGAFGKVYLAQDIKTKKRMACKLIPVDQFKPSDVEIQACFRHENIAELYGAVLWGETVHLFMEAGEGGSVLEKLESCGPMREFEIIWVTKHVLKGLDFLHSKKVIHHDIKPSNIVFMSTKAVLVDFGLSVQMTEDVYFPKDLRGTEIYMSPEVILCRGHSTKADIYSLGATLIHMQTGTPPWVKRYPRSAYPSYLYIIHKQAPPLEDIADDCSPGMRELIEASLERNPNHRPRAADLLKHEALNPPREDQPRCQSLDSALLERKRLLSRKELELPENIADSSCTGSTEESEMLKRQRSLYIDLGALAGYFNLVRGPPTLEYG", "assay": "FRET or BRET"}, "[4]": {"target": "T1, TPL2, Nluc- or YFP-tagged (BRET) (human, UniProt P41279-1 1-467)", "T1 construct": "also called MAP3K8", "T1 sequence (P41279 whole entry)": "as above", "assay": "FRET or BRET", "conditions": "partners not purified"}, "[5]": {"target": "T2, p105, Nluc- or YFP-tagged (BRET) (UniProt P19838 1-968)", "T2 construct": "also called NFκB1(p105/p50)", "T2 sequence (looked up)": "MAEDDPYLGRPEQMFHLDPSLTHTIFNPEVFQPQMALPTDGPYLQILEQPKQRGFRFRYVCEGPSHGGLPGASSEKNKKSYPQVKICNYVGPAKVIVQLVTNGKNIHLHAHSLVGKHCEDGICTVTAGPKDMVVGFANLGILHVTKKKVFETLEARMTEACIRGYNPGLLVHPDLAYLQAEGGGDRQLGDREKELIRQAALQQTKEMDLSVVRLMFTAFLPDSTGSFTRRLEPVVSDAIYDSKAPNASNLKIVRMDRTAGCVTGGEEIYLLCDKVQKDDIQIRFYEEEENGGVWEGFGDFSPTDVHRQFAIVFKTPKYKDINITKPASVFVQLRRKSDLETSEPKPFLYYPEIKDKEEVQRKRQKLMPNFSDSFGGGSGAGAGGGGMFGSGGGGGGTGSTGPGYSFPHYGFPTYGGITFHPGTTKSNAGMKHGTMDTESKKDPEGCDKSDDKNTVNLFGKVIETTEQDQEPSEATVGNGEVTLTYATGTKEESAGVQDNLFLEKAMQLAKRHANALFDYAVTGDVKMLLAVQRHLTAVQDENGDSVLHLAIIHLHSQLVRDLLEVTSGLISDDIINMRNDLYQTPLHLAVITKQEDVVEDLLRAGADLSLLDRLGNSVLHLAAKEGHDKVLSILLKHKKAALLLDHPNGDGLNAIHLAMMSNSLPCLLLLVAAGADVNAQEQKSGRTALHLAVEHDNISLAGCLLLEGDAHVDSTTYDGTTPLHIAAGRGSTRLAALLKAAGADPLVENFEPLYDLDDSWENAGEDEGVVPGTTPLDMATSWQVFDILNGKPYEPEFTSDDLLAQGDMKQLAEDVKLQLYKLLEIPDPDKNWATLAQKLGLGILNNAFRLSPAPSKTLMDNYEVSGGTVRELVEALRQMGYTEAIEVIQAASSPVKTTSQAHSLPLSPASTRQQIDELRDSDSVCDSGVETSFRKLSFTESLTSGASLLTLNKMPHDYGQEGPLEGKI", "assay": "FRET or BRET", "conditions": "partners not purified"}, "[6]": {"target": "TPL2, Glu1- or Glu2-tagged (PCA) (human, UniProt P41279-1 1-467)", "sequence (P41279 whole entry)": "as the sequence (P41279 whole entry) above", "assay": "split reporter (BiFC, NanoBiT)", "conditions": "partners not purified"}}, "note": "“And” between values parts separate entries of the source, which are not always exact repeats. Identical values can stand only once.", "data": [{"molecule": "p105, Nluc- or YFP-tagged (BRET) (from UniProt P19838 1-968) (natural protein)", "values": [{"measurement": "netBRET", "setting": "[1]", "result": "> 0.05"}]}, {"molecule": "MSAD, YFP-tagged (BRET) (from UniProt P16287 1-202) (natural protein)", "values": [{"measurement": "netBRET", "setting": "[2]", "result": "0.022 and 0.063"}]}, {"molecule": "p50, Nluc- or YFP-tagged (BRET) (domain or fragment)", "values": [{"measurement": "netBRET", "setting": "[1]", "result": "> 0.05"}]}, {"molecule": "MTha, YFP-tagged (BRET) (natural protein)", "values": [{"measurement": "netBRET", "setting": "[3]", "result": "> 0.05"}, {"measurement": "netBRET", "setting": "[1]", "result": "0.022 to 0.109"}]}, {"molecule": "B1", "values": [{"measurement": "netBRET", "setting": "[4]", "result": 0.093}, {"measurement": "netBRET", "setting": "[5]", "result": "< 0.05"}]}, {"molecule": "B2", "values": [{"measurement": "other", "setting": "[6]", "result": 0.86}]}, {"molecule": "B3", "values": [{"measurement": "netBRET", "setting": "[4]", "result": "> 0.05"}]}]}
